Positions count from the first letter of the chain named.
How the values were obtained:
[1] = target: β type group II CPN of Picrophilus torridus (Picrophilus torridus); experiment: SEC-MALS; WTC-100S5 column, 25 °C, 50 mM Tris-HCl pH 7.5, 25 mM MgCl2, 0.2 mM ATP, 300 mM (NH4)SO4, 1 mM DTT, 1.0 mL/min; purified oligomers
[2] = target: Green fluorescent protein, acid-denatured [GFP: P42212]; experiment: GFP releasing assay (recovery of GFP fluorescence, fit of two consecutive steps); acid-denatured GFP captured by 400 nM PtoCPNα at 60 °C for 5 min in HKM buffer with 1 mM DTT, then diluted 10-fold into the same buffer at 30 °C; k1 is the release of denatured GFP
[3] = target: α type group II CPN of Picrophilus torridus (Picrophilus torridus); experiment: SEC-MALS; WTC-100S5 column, 25 °C, 50 mM Tris-HCl pH 7.5, 25 mM MgCl2, 0.2 mM ATP, 300 mM (NH4)SO4, 1 mM DTT, 1.0 mL/min; purified oligomers
[4] = target: Green fluorescent protein, acid-denatured [GFP: P42212]; experiment: GFP releasing assay (recovery of GFP fluorescence, fit of two consecutive steps); acid-denatured GFP captured by 400 nM PtoCPNα at 60 °C for 5 min in HKM buffer with 1 mM DTT, then diluted 10-fold into the same buffer at 50 °C; k1 is the release of denatured GFP
[5] = target: T1, PtoCPNα (Picrophilus oshimae, UniProt Q6L132, D139G); experiment: ATP-dependent refolding of acid-denatured GFP; format: biochemical; settings: 1 mM ATP, 50 mM Tris-HCl pH 7.5, 25 mM MgCl2, 100 mM KCl, 50 °C (figure legend: 60 °C)
T1 construct: gene PTO0735; full length, untagged, pET23b in E. coli BL21(DE3); reassembled homo-oligomer (hexadecamer, 914 kDa); D139G from cloning; forward primer encodes MITGQTPILILKEGTERQ; locus assigned by printed order (other locus PTO1195)
T1 sequence (Q6L132 1-546 D139G): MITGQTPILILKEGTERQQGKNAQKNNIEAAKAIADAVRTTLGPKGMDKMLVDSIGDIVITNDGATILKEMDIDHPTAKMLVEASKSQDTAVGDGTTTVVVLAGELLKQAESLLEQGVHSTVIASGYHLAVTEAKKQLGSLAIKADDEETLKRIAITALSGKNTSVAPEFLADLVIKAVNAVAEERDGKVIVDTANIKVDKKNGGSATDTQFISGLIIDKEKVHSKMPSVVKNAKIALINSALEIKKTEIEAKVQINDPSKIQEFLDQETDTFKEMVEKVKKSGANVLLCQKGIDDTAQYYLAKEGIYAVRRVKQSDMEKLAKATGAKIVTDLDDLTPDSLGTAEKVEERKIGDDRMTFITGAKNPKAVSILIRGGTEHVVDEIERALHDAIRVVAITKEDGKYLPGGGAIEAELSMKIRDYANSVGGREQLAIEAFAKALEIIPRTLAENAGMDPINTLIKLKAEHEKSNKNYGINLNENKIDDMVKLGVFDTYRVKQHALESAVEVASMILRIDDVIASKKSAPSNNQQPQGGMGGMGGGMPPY

[6] = target: T2, PtoCPNα (Picrophilus oshimae, UniProt Q6L132, D139G/S260C/C290S); experiment: fluorescence change of fluorescein on Cys260; format: binding; settings: 1 mM ATP, 50 nM chaperonin, 50 mM Tris-HCl pH 7.5, 25 mM MgCl2, 100 mM KCl, 60 °C; protein labelled with fluorescein 5-maleimide
T2 construct: gene PTO0735; full length, untagged, pET23b in E. coli BL21(DE3); reassembled homo-oligomer (hexadecamer, 914 kDa); D139G from cloning; forward primer encodes MITGQTPILILKEGTERQ; locus assigned by printed order (other locus PTO1195)
T2 sequence (Q6L132 1-546 D139G/S260C/C290S): T1 sequence (Q6L132 1-546 D139G) with S260C, C290S

Compound: β type group II CPN of Picrophilus torridus (complex)
- stoichiometry N [1]: 14

Compound: α type group II CPN of Picrophilus torridus (complex)
- koff [2]: 0.478 s⁻¹
- stoichiometry N [3]: 16
- koff [4]: 0.118 s⁻¹

Compound: Nc1ncnc2c1ncn2[C@@H]1O[C@H](COP(=O)(O)OP(=O)(O)OP(=O)(O)O)[C@@H](O)[C@H]1O [ATP]
- ATP-dependent refolding of acid-denatured GFP [5]: enhances its refolding in an ATP‐dependent manner
- % decrease in maximal fluorescence intensity [6]: ~ 15.5%
